Laboratory results from patent publication US20210403586A1, “MUTANT OF RANKL AND PHARMACEUTICAL COMPOSITION COMPRISING SAME FOR PREVENTING OR TREATING OSTEOPOROSIS” (INDUSTRY-ACADEMIC COOPERATION FOUNDATION CHOSUN UNIVERSITY, priority 2018, published 2021).
Entries after “also recorded” stand apart in the source; their conditions may differ.

Legend:
[1] = test system: bone marrow-derived monocytes (BMMs); experiment: TRAP analysis of osteoclastogenesis induced by RANKL variants in BMMs; assay type: cell-based, mouse; details: RANKL-treated primary BMM
Method: The RANKL-RANK binding sites are K180, D189, R190, H223, H224, which are conserved between humans and mice. We selected 4 mutant RANKLs to be purified. Their size corresponded to the wild type RANKL (39 kDa) (FIG. 2B). Tartrate-resistant acid […] (TRAP) activity was absent for all RANKLs even at 150 ng/mL (FIG. 2C, D).
4-week old male BALB/c mice were purchased from Orient Bio (Gwangju, Korea) and kept in an animal facility approved by the Chosun University Animal Management Committee (IACUC2017-A0002). After obtaining bone marrow cells from mice, bone marrow mononuclear cells were seeded into 96-well plates (1 Y 10^4 cells/well), and in the absence or presence of various concentrations of compounds, incubated with M-CSF (100 ng/mL) overnight before stimulation with RANKL (50 ng/well). The medium was replaced every other days. 6 days later, the cells were fixed with 4% paraformaldehyde, permeated in 0.1% Triton X-100, and washed with PBS. Then, TRAP activity (Sigma-Aldrich, St. Louis, Mo., USA) staining was performed. TRAP-positive multinuclear cells containing 5 or more nuclei were counted as osteoclasts.
To evaluate the effect of mtRANKL on osteoclastogenesis, TRAP analysis was performed on RANKL-treated primary bone marrow-derived macrophages (BMM) by the method described in Reference Example 2, and the results are shown in FIGS. 4B and 4C.

[2] = test system: BMMs; experiment: Bone-resorption assay (Osteo Assay Surface plates); assay type: cell-based, mouse; details: 6 days, mRANKL-MT3 150 ng/mL
Method: (§1) We used bone-resorption and F-actin ring formation assays to investigate osteoclast activity. To observe bone resorption in vitro, BMMs were cultured in Corning Osteo Assay Surface 96-well Multiple Well Plates (Sigma) with 30 ng/mL M-CSF and 75 ng/mL sRANKL (soluble RANKL; R&D Systems) or isolated RANKL for 6 days. Then, the plates were washed with pure water. To monitor actin ring formation, BMMs were grown on glass slides. After culture, the cells were fixed with 4% formalin, permeabilized with 0.5% Triton X100 in PBS for 5 min at room temperature, and incubated with 0.5 mg/mL TRITC-labelled phalloidin for 30 min. The cells were then rinsed with PBS. F-actin rings were visualized using a fluorescence ECLIPSE Ts2R microscope (Nikon, Tokyo, Japan).

[3] = test system: BMMs; experiment: F-actin ring formation assay; assay type: cell-based, mouse; details: mRANKL-MT3 150 ng/mL
Method: as §1

[4] = test system: BALB/c mice; experiment: Bone destruction by injected mtRANKL, micro-CT; assay type: in vivo, mouse; details: subcutaneous 1.0 mg/kg three times a week
Method: (§2) The right femur of each mouse subjected to each experiment was incised and CT imaging was performed using a Quantum GX pCT imaging system (PerkinElmer, Hopkinton, Mass., USA) located at the Korea Basic Science Institute in Gwangju. As for the X-ray source, the field of view was set to 45 mm, 90 kV and […] (voxel size, 90 μm; scanning time, 14 minutes). CT imaging was performed using a Quantum GX 3D Viewer software. After scanning, image segmentation was performed in Analyze (AnalyzeDirect, Overland Park, Kans., USA). Briefly, the legs were segmented using semi-automatic and manual tools (e.g., object extractor, area expansion, and object separator) using volume editing tools. Then, a 3D rendering of the leg was created, and bone mineral density (BMD), bone volume (BV), bone volume percentage (%), and trabecular thickness were calculated using the ROI tools.
To investigate the bone-destructive effect of mtRANKL, 4-week-old male BALB/c mice (Orient Bio) were placed in a cage capable of accommodating up to 4 animals in a light-controlled environment ([…]) and provided with autoclaved water and both whole and powdered rodent diet (Purina, St. Louis, Mo., USA). Starting from 6 weeks of age, 9 mice were randomly divided into three groups, and each group was subcutaneously injected with wild-type RANKL (Amgen, Thousand Oaks, Calif., USA), mtRANKL purified in Reference Example 2, and saline three times a week (1.0 mg/kg). The trabecular bone in femoral neck was examined by Micro-CT analysis described in Reference Example 6.

[5] = test system: wtRANKL-induced mouse; experiment: mtRANKL immunization in wtRANKL-induced osteoporosis mice, micro-CT; assay type: in vivo
Method: as §2
(§3) 17-week-old […] BALB/c mice were equally divided into 3 groups. The group was divided into a negative control group in which PBS was intraperitoneally injected, a group in which only wtRANKL was injected, and a group in which wtRANKL was injected after immunization with mtRANKL for 52 days. mtRANKL was injected after mixing with an aluminum hydroxide adjuvant. The immunization process started with 1st immunization of mtRANKL at 52 days, 2nd immunization at 39 days, 3rd immunization at 14 days each before injection of wtRANKL, and a total of 3 immunizations was performed. The amount of mtRANKL was 0.2 mg per mouse.
(§4) After 52 days, PBS was injected into the negative control group and wtRANKL was injected into the other two groups. Next day, wtRANKL was injected once more. wtRANK was subcutaneously injected (2.0 mg/kg). Serum was collected to determine the titer of anti-RANKL antibody. Then, after extracting tibias, the adhesive soft tissues of tibias were removed.
To examine whether RANKL has a bone destruction effect when RANKL was injected after immunization with mtRANKL, micro-CT analysis was performed by the method of Reference Example 6.

[6] = test system: RANKL; experiment: ELISA of serum RANKL levels; assay type: in vivo, mouse; details: wtRANKL 2.0 mg/kg s.c. to non-immunized mice, or to mice immunized with mtRANKL
Method: A commercially available enzyme immunoassay kit (R & D Systems, Minn., USA) was used to measure RANKL levels in the serum of mice according to the manufacturer's protocol. Absorbance (450 nm) was measured in a colorimetric microplate reader (BioTek, Winooski, USA). The reading of the absorbance was then subtracted from the reading at 570 nm.
as §3, §4

[7] = test system: RANK and LGR4 signaling; experiment: Western blots of RANK and LGR4 signaling pathway proteins, RANKL variants; assay type: cell-based, mouse; details: BMMs, Western blot
Method: Proteins were separated by SDS-PAGE and electropermeated into a nitrocellulose membrane (Bio-Rad). After blocking the membrane with 5% (weight/volume) skim milk in TBST [10 mM Tris (pH 7.5), 150 mM NaCl, 0.1% (vol/vol) Tween 20], each mouse serum for primary antibody in the blocking solution was examined. The membrane was washed three times with Tris buffered saline. […] peroxidase (HRP)-conjugated secondary antibody was diluted 1:5000 with TBST in 1% (wt/vol) skim milk powder. ECL_system (Amersham Pharmacia Biotech) was used as the membrane.
Primary antibodies: AKT (Cell Signaling Technology, 1:1000), phospho-AKT (Cell Signaling Technology, #9271S, 1:1000), p38 (Cell Signaling Technology, 9212S, 1:1000), phospho-p38 (Cell Signaling Technology, #9211S, 1:1000), ERK (Cell Signaling Technology, 9102S, 1:1000), phospho-ERK (Cell Signaling Technology, #9101S, 1:1000), JNK (Cell Signaling Technology, 9252S, 1:1000), phosphoJNK (Cell Signaling Technology, #9251S, 1:1000), GSK-3β (Cell Signaling Technology, 9315S, 1:1000), phosphoGSK-3β (Cell Signaling Technology, #9336S, 1:1000), Src (Cell Signaling Technology, 2108S, 1:1000), phosphoSrc (Cell Signaling Technology, #2105S, 1:1000), NF-KB p65 (Cell Signaling Technology, #3034, 1:1000), phosphop65 (Cell Signaling Technology, #3031, 1:1000), RANK (Cell Signaling Technology, 4845S, 1:1000), Gaq (Cell Signaling Technology, 14373S, 1:1000), LGR4 (MyBioSource, MBS468030, 1:500), 20112360C-1, and GAPDH (Santa-Cruz Biotechnology, 1:2500).
To investigate the interaction of mRANKL variants and RANK, the co-immunoprecipitation (Co-IP) assays were carried out using mRANKL-WT/mRANKL-MT3 and RANK/LGR4 (FIG. 12A). In addition, wild-type RANKL induced MAPK, AKT, NF-κB p65, and GSK-3 phosphorylation, which is involved in LGR4 signaling (FIG. 12B).

[8] = test system: isolated spleen cells; experiment: Th1/Th2 cytokine secretion of isolated spleen cells; assay type: cell-based, mouse; details: culture supernatant of Sham and IM splenocytes stimulated with sRANKL or mRANKL-MT3
From the text: To determine whether mRANKL-MT3 immunization influences Th1 and Th2 cytokine production, we evaluated the effects of mRANKL-MT3 on IL-4 and IL-10 secretion, which are markers for Th2 responses, and IFN-γ, a marker for Th1 responses, in the culture supernatant of isolated spleen cells stimulated with sRANKL or mRANKL-MT3 (FIG. 8C).

[9] = test system: sRANKL-induced mice; experiment: Anti-RANKL IgGs in sRANKL-induced mice; assay type: in vivo, mouse
[10] = test system: RANK and LGR4 signaling; experiment: Anti-RANKL on RANK and LGR4 signaling in BMMs; assay type: cell-based, mouse; details: Western blot, sRANKL
Method: Proteins were separated by SDS-PAGE and electropermeated into a nitrocellulose membrane (Bio-Rad). After blocking the membrane with 5% (weight/volume) skim milk in TBST [10 mM Tris (pH 7.5), 150 mM NaCl, 0.1% (vol/vol) Tween 20], each mouse serum for primary antibody in the blocking solution was examined. The membrane was washed three times with Tris buffered saline. […] peroxidase (HRP)-conjugated secondary antibody was diluted 1:5000 with TBST in 1% (wt/vol) skim milk powder. ECL_system (Amersham Pharmacia Biotech) was used as the membrane. […]
We verified that anti-RANKL suppressed RANK and LGR4 signaling in a time-dependent manner (FIG. 13A). […] In addition, NFATc1 nuclear translocation was not detected by Western blot analysis or confocal microscopy in anti-RANKL-treated BMMs in the presence of sRANKL compared with control IgG (FIG. 13B, 13C).

[11] = wtRANKL-injected mice vs mtRANKL-immunized mice with wtRANKL injection

| Molecule | number of TRAP-positive multinuclear osteoclasts / osteoclast differentiation [1] | resorption pits [2] | F-actin ring formation [3] | BMD, bone volume (BV), percentage (%) of bone volume, and trabecular thickness [4] | trabecular bone by Micro-CT (osteoporosis) [4] | bone volume and percentage of bone volume ([5]; compared with PBS-treated mice) | BMD of tibias [5, 11] [mg/mL] | trabecular bone architecture of proximal tibias (micro-CT) [5, 11] | level of RANKL in the blood (ELISA) [6] | GSK-3 phosphorylation [7] | MAPK, AKT, and NF-κB p65 phosphorylation [7] | IFN-γ levels [8] | IL-4 and IL-10 secretion [8] | trabecular bone architecture of VOI from the distal femur (micro-CT) ([9]; sRANKL-induced mice) | BMD, BV/TV, and Tb.N. values ([9]; sRANKL-induced mice, quantitative micro-CT) | bone histomorphometric analysis and TRAP staining of femur ([9]; sRANKL-treated mice) | circulating RANKL and CTX-1 levels ([9]; sRANKL-treated mice sera) | MAPK, AKT, src, and GSK-3β phosphorylation [10] |
| --- | --- | --- | --- | --- | --- | --- | --- | --- | --- | --- | --- | --- | --- | --- | --- | --- | --- | --- |
| wtRANKL: wild-type RANKL (mouse; purified, or from Amgen in Example 2) (protein, UniProt O35235 139-316, looked up) Tumor necrosis factor ligand …: FSGAPAMMEGSWLDVAQRGKPEAQPFAHLTINAASIPSGSHKVTLSSWYHDRGWAKISNMTLSNGKLRVNQDGFYYLYANICFRHHETSGSVPTDYLQLMVYVVKTSIKIPSSHNLMKGGSTKNWSGNSEFHFYSINVGGFFKLRAGEEISIQVSNPSLLDPDQDATYFGAFKVQDID | significantly higher; also recorded: increased the number of TRAP-positive multinucleated cells | numerous resorption pits | a ring of intracellular F-actin filaments in the sealing zone | remarkably reduced | mild osteoporosis was observed | decreased | 738.0 ± 19.1 | fenestrated trabecular bone and thinner rods forming the trabecular bone | increased | induced | induced | – | – | – | – | – | – | – |
| sRANKL: soluble RANKL; R&D Systems (protein) FSGAPAMMEGSWLDVAQRGKPEAQPFAHLTINAASIPSGSHKVTLSSWYHDRGWAKISNMTLSNGKLRVNQDGFYYLYANICFRHHETSGSVPTDYLQLMVYVVKTSIKIPSSHNLMKGGSTKNWSGNSEFHFYSINVGGFFKLRAGEEISIQVSNPSLLDPDQDATYFGAFKVQDID | – | – | – | – | – | – | – | – | – | – | – | no significant differences | significantly increased | mild osteoporosis | low | an increased number of TRAPpositive osteoclasts | higher | induced |
